Experimental data as given in the RNAGym collection of RNA variant scans (doi:10.1073/pnas.2313332121).

B1: TPR t1 (parent)
chain: GACCAAUCUGCCCUCAGAGCUCGAGAACAUCUUCGGAUGCAGAGGAGGCAGGCUUCGGUGGCGCGAUAGCGCCAACGUCCUCAACCUCCAAUGCAUCCCACCACAUGAUGAUGCCUGAAGAGCCUUGGUUUUUUG

Variants of: B1
Experiment: polymerase ribozyme fitness, log enrichment relative to wild type (log ratio); higher = more active; in vitro selection for triplet polymerase activity
Summary of the method: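 Frozen incubation at −7 °C formed the core of a single, triplicate in vitro selection round applied to PCR-built, transcribed mutant libraries of each subunit of a heterodimeric triplet polymerase ribozyme. Extended constructs were gel-excised, captured with streptavidin beads and amplified by RT-PCR, and input and output libraries were Illumina-sequenced with a filter of ≥10 input reads and ≥1 read per output. Fitness is the logarithm of genotype enrichment relative to wild-type enrichment, with inverse-variance-weighted replicate averaging, and the logarithm is base 2.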

Row | Variant | polymerase ribozyme fitness (log ratio)
1 | C72U C115U U129G | -2.18
2 | C72U U133G | -0.942
3 | C72U C101G G117U | -3.6
4 | C70G G93C | -4.94
5 | C70G G93A | -4.33
6 | C72G C86G A121U U125A G135U | -2.76
7 | C70A U81C C88A G120U | -3.19
8 | C72U G93A C102U G117A | -4.25
9 | C73A A74C | -0.174
10 | C72U A91C G93U U126G | -4.23
11 | C72A C85G G93A U106C | -1.13
12 | C70U U78G A108G A111C | -2.26
13 | C70U U81C U96C | -1.2
14 | C72A G107A | -4.95
15 | C72U C86G U126G | -3.16
16 | C72A G117A | -1.19
17 | C72A C73A | -0.947
18 | C70U G71A U129G | -1.98
19 | G71U G110U | -1.24
20 | C70U U125A | -1.31
21 | C72U C86U G107U G113U | -6.11
22 | G71C A90U G122A C123U | -3.12
23 | C72G G117U A121U G127A | -3.25
24 | G71U C101U U130G | -0.458

Row | Variant | polymerase ribozyme fitness (log ratio)
25 | C72U C94A | -1.26
26 | C72U A91G C104A G127C | -4.76
27 | C72G U131G | -0.31
28 | G71C C97U | -1.45
29 | C73A A119G | 0.838
30 | C72U A74U U106A G127A | -1.68
31 | C72A C94U | -0.00506
32 | C73A A91U C94U | -2.58
33 | C72A U87A | 0.169
34 | C72U A95C | -0.818
35 | G71U C85A | -1.72
36 | G71U C89A | -2.47
37 | C73A C85U U116G | -2.18
38 | C70A C115U | -2.84
39 | C70U C115G | -2.23
40 | C70U C115A | 0.108
41 | G71U A74G | -5.51
42 | G71A G110A | -2.14
43 | C72G C124U | 1.15
44 | C70G U78C C82G A91C | -5.79
45 | C70A U96A | -2.63
46 | C72U U96G U126C | -1.75
47 | C70G G77A G93A A100U A105G U106A | -4.21
48 | C72U U126C | -0.816

Row | Variant | polymerase ribozyme fitness (log ratio)
49 | G71U A91G A121U | 0.367
50 | G71A U131G | -1.27
51 | C70A U78A C115U | -4.18
52 | C72A G120U | 0.158
53 | C70U C80A U87A | -5
54 | C70G C85A U106A U130A | -4.47
55 | C72A C80U C114G | -3.31
56 | C72G U78C U109A | -6.55
57 | C70U C102U | -2.39
58 | C70U C72U A121G | 1.38
59 | C72G G113C C114U C115G C124U | -4.29
60 | G71U U81G A111U | -6.76
61 | C70A G110A U133A | -3.64
62 | C72G C80A | -5.5
63 | C70A C114A A119U | -4.59
64 | G71U U112C | 1.34
65 | G71C G120C | 0.219
66 | C72U U78G U109C | -5.41
67 | G71C U112A | 0.348
68 | G71U C86A | -2.02
69 | C72G C114A U130C U133G | -1.37
70 | G71A U106A | -0.841
71 | G71A U106G | -2.73
72 | C70U A83C A108G | -2.22

Row | Variant | polymerase ribozyme fitness (log ratio)
73 | C72U C82A C115A | -1.79
74 | C70U U78C U129G | -1.5
75 | C70U U78C U129A | -1.77
76 | C72U U129G | -1.46
77 | C73A A90U A105G G113C G122C | -3.65
78 | C72U C101G | -2.18
79 | C70A C104A | -3.24
80 | C72G G93A | -0.585
81 | C72U G135C | -0.00236
82 | C70U G135U | -1.13
83 | C72U U92A A95U | -4.07
84 | C70U C88G U125G | -1.36
85 | G71U C102G U112A G127U | -5.37
86 | C70G C79A A111C A119C | -8.17
87 | C70G C123A | -2.21
88 | C72U C86A A103C | -5.58
89 | C72U U81G C85A | -3.96
90 | G71U C115G | -1.74
91 | C72G G127A | -1.26
92 | C72G G127C | -0.368
93 | G71A C123U | 0.153
94 | C70A C86A | -2.39
95 | G71A U96A | -2.13
96 | C70U A95G | -0.166

Row | Variant | polymerase ribozyme fitness (log ratio)
97 | G71U G93U | -0.956
98 | C70A U112A G113A | -2.47
99 | G71C U96G G120U | -1.37
100 | C72U U109A | -5.61
101 | C72G C80G U130C | -5.89
102 | G71U U96A | -1.24
103 | C72A G93C C102G | -6.8
104 | C72U G110U U125A | -2.31
105 | C72U U78C C86G C115U | -1.64
106 | G71A C98U C101A | -3.15
107 | C72U U87A | -0.188
108 | C72A C85U C102U A121G U133A | 0.201
109 | C70G G110A | -4.37
110 | C72U A119U | -0.327
111 | C70U A90G | -0.454
112 | C72U U132C | -0.841
113 | C72G A111C | -0.642
114 | G71U A75U C98U | -2.02
115 | C72U C102A G120U U130G | -2.46
116 | C72U A118C | -2.89
117 | C72A U81G G110U | -6.47
118 | C70G C86U G110U G113C | -6.29
119 | G71U A121U | 2.07
120 | C70U A111G | 0.0643

Row | Variant | polymerase ribozyme fitness (log ratio)
121 | C70U C88A A119G U131A | 1.21
122 | C72G A95C | -2.36
123 | G71A G77U C88U G110A C115A U130A | -4.99
124 | C70A U87G | -1.73
125 | C72U C73U C88U G113U U125A | -5.18
126 | C70U C124G | 0.921
127 | C72G C82A C85A A95U | -4.18
128 | G71A U87G A103C U106C C124G | -3.7
129 | C72U C86G | -0.742
130 | C72A A91C G117C | -4.28
131 | C72G C102U U106G | -4.73
132 | G71U U81A C123A | -1.04
133 | C72U C85U | -1.48
134 | C70U G128C | -2.54
135 | C70U A75G | -0.621
136 | C70U U131C | 0.366
137 | C70U U131A | -0.232
138 | G71A C114G | -3.49
139 | C70A C88G U125G | -3.18
140 | C72G U112A U129A | 0.0162
141 | C70U C82A G113A | -1.84
142 | G71C C124A | -0.102
143 | G71C C89G U130C | -4.18
144 | C70G U92C | -4.9

Row | Variant | polymerase ribozyme fitness (log ratio)
145 | G71U C73A A83U | -2.73
146 | G71A A111G | -0.423
147 | C72U A91U A100U A119U | -3.58
148 | C72A U109A C123U | -6.2
149 | C72U C114U C123U U130A G135A | -2.43
150 | C72G C82U C102A G120A | -1.89
151 | C72G A111U U130G | -4.27
152 | C72U C97U U106C A108G | -6.08
153 | C72U C82G G110U | -2.93
154 | C72G U87G G117A | -2.09
155 | C72G U81C C101U | -0.875
156 | C72A G113U G120A U132A | -2.87
157 | C70U C80A A95G A111G | -5.34
158 | G71U C82G G117A | -2.4
159 | C70U C97U C101U C102A | -4.84
160 | G71A G117U | -2.33
161 | C72G U125G | -1.12
162 | C72A A118U | 0.818
163 | C70G U130A | -3.16
164 | C72U G120A C124U | 1.83
165 | G71A U109C | -4.59
166 | C70U C82U A83C C89A G93A | -4.1
167 | G71U C99G C115U | -7.86
